Consider two molecules from US10149922B1, “Engineered collagen matrices for myocardial therapy” (The Board of Trustees of the Leland Stanford Junior …, priority 2012, dated 2018).

Experiment [1] deals with FSTL1-induced proliferation of immature cardiomyocytes. Description: Screen of signal transduction inhibitors on FSTL1-induced proliferation. To be noted: EMD StemSelect compound library. Type of experiment: cell-based. On the procedure:
(§1) Experiments were conducted to analyze the proliferative response of early cardiomyocytes to FSTL1. 7 days following FSTL1 treatment, we observed that a remarkable 50% of the differentially expressed transcripts are known targets of the JAK/STAT and interferon related (IFR) pathways.

In experiment [2] the test system is mESC-derived immature cardiomyocytes (mCM-d2). Nature of the experiment: Number of α-actinin+ cardiomyocytes in mCM-d2 cultures. Format: cell-based, mouse. To be noted: 10 ng/ml, eight days of treatment. On the procedure:
(§2) H2B-mCherry EMCs were maintained in DMEM with 10% FBS and antibiotics/antimycotic. Myh6-Puro^r;Rex-Blast^r mESCs were generated by Lentiviral transduction and Blasticidin selection, and then cultured. For cardiac differentiation, ESCs were cultured in Iscove's Modified Dulbecco Media (IMDM) supplemented with 10% FBS, 2 mM glutamine, 4.5×10^−4 M monothioglycerol, 0.5 mM ascorbic acid, 200 ug/mL transferrin (Roche), 5% protein-free hybridoma media (PFHM-II, Invitrogen) and antibiotics/antimycotic and differentiated as either embryoid bodies (EBs) formation or monolayer. Puromycin was added at differentiation day 10 for two days to enrich cardiomyocyte. The cells were then trypsinized and plated as monolayer cardiomyocytes. Conditioned media were collected after 2 days culturing of confluent EMC cells and passed through 0.22 um filters (Millipore). Control conditioned media were prepared the same way without EMC cells. Recombinant Fstl1 was purchased from ADIPO BIOSCIENCE.
We utilized an epicardial/mesothelial cell line (EMC) to investigate the interaction between epicardium and myocardium.
We applied 10 ng/ml purified hFstl1 onto the mCM-d2 system of ESC-derived early cardiomyocytes, similarly to the coculture and conditioned media experiments described in FIG. 2.

Experiment [3] has the same test system. Description: Q-RT-PCR of cardiac-specific markers in mCM-d2. Format: cell-based, mouse. To be noted: 10 ng/ml, eight days of treatment. On the procedure:
as §2
Total RNA was extracted with TRIzol (Invitrogen) and reverse transcribed to cDNA with QuantiTect Reverse Transcription Kit (Qiagen) according to the manufacturer's instructions. cDNA samples synthesized from 100 ng of total RNA were subjected to RT-QPCR with LightCycler 480 SYBR Green I Master kit (Roche) performed with LightCycler 480 Real-Time PCR System (Roche).

Experiment [4] shares this test system. Description: Kinetic Image Cytometry of rhythmic calcium transients in mCM-d2. Format: cell-based, mouse. To be noted: 10 ng/ml, eight days of treatment, mCM-d2, KIC analysis. On the procedure:
as §2
Kinetic Image Cytometer from Vala was used as instructed to record intracellular calcium transient with Fluo4 NW calcium indicator (Life Science). Data was processed using Cyteseer (Vala).

For the next experiment, the system named is mCM-d2. Description: phospho-Histone3 proliferation in mCM-d2. Type of experiment: cell-based, mouse. To be noted: mCM-d2 treated for 48 hrs.
The subject of experiment [5] is Neonate Rat Ventricular Cardiomyocytes (NRVC). Description: Cell cycle profile of neonate rat ventricular cardiomyocytes (flow cytometry). Format: cell-based. To be noted: NRVC treated for 24 hours. On the procedure: Ventricular cardiomyocytes were isolated with neonatal rat cardiomyocyte isolation kit (Cellutron) and cultured at 37° C. with 5% CO2. In brief, ventricles were dissected from 1-2-d-old Hsd:SD rats (Sprage Dawley), then digested five times for 15 min each with the enzyme cocktail at 37° C. Cells were pooled, preplated for 90 min on an uncoated dish to remove fibroblasts, and plated on 1% gelatin-coated cell culture plastic dishes in high-serum media (DME/F12 [1:1], 0.2% BSA, 3 mM sodium-pyruvate, 0.1 mM ascorbic acid, 4 mg/liter transferrin, 2 mM L-glutamine, and 5 mg/liter ciprofloxacin supplemented with 10% horse serum and 5% FCS) at 3×10^5 cells/cm2. After 24 h, media was changed to low-serum medium (same but with 0.25% FCS) and cultured until use.
The cell cycle profile of cardiac cells was analyzed as described. In brief, cells were fixed for 1 h at 4° C. with 0.25% PFA and then permeabilized for 15 min at 37° C. with 0.2% Tween 20 before incubation with α-actinin and secondary antibodies (Alexa 488—conjugated anti-mouse Ig) diluted 1:100 in FACS buffer (PBS with 1% goat serum and 0.1% NaN3). Cells were then stained with 10 μg/ml propidium iodide in FACS buffer supplemented with 500 μg/ml of RNAase A. Flow cytometry was performed on BD FACSCanto. FlowJo and ModFit software were used to analyze the results.

In another experiment the test system is early cardiomyocytes. Nature of the experiment: Whole transcriptome profiling of early cardiomyocytes after FSTL1 treatment. Format: cell-based. To be noted: 7 days following FSTL1 treatment. On the procedure: In one approach, whole transcriptome profiling after long and short term treatment is used. Transcriptome profiling is a common approach to gain insight into signaling pathways through the analysis of pathway selective gene expression. Responsive cells selected in the previous experiments are incubated with FSTL1 for 24 hours (short-term) or 7 day (long-term). Transcripts are profiled using microarrays (Affymetrix). Candidate factors are then validated functionally using small molecule inhibitors (if available) and/or siRNA.
as §1

The subject of the next experiment is mouse MI model. Nature of the experiment: Route of FSTL1 delivery in the mouse MI model. To be noted: compared to epicardial-localized delivery. Type of experiment: in vivo. From the text:
Key variables, including time of delivery and the effectiveness following reperfusion. A second critical issue concerns the localized site of FSTL1 delivery. Systemic delivery was not effective in the mouse MI model, compared to epicardial-localized delivery. However, the present the epicardial biomaterial patch itself may provide an effective physical support that could synergize with a systemic FSTL1 delivery. FSTL1 must be delivered epicardial to be effective, and may done by impregnated into the collagen of the patch.

With `C[C@H](NC(=O)/C(C#N)=C/c1cccc(Br)n1)c1ccccc1` [WP1066], the “effect on FSTL1-induced proliferation” value in experiment [1] is given as “blocked”.

B1: Fstl1: Secreted glycoprotein encoded by the FSTL1 gene (SEQ ID NO: 1, UniProt Q12841); recombinant protein purchased from ADIPO BIOSCIENCE (protein, listed as Homo sapiens)
chain: MWKRWLALALALVAVAWVRAEEELRSKSKICANVFCGAGRECAVTEKGEPTCLCIEQCKPHKRPVCGSNGKTYLNHCELHRDACLTGSKIQVDYDGHCKEKKSVSPSASPVVCYQSNRDELRRRIIQWLEAEIIPDGWFSKGSNYSEILDKYFKNFDNGDSRLDSSEFLKFVEQNETAINITTYPDQENNKLLRGLCVDALIELSDENADWKLSFQEFLKCLNPSFNPPEKKCALEDETYADGAETEVDCNRCVCACGNWVCTAMTCDGKNQKGAQTQTEEEMTRYVQELQKHQETAEKTKRVSTKEI
Take B1: the “increase in the number of cardiomyocytes” value in experiment [2] is reported as 4 fold. In addition, in experiment [3], the “increase in mRNA content of contractile proteins (including Myh6, Mlc2v, and Mlc2a)” value is 2-3 folds. In experiment [4], the “increase in the number of cardiomyocytes displaying rhythmic calcium transient” value is listed as 7-8 folds. The “phospho-Histone3+ cells” value in the experiment on mCM-d2 is recorded as “significantly more”. In experiment [5], the “percentage of cells in S/G2/M phase” value is listed as “significantly increased”. For the same molecule, the “differentially expressed transcripts that are known targets of the JAK/STAT and interferon related (IFR) pathways” value in the experiment with early cardiomyocytes turned out to be 50%. Further, in the experiment on mouse MI model, the “efficacy of systemic delivery” value is recorded as “not effective”.
